Laboratory results taken from PMC3334467 (Immunity, 2012).

Target: T1, MBP-AIM2 HIN domain (human, UniProt O14862 144-343)
T1 sequence (looked up): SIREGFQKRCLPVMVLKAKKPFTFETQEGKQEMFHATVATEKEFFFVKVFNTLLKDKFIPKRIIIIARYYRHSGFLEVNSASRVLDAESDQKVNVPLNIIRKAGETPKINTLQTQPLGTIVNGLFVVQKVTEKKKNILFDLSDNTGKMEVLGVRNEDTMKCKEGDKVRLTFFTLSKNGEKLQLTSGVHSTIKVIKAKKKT
Experiment: fluorescence polarisation

B1: AIM2 PYD domain, wild type (residues 1–107), as used in the FP inhibition assay (domain or fragment, human, UniProt O14862 1-107, looked up)
chain: MESKYKEILLLTGLDNITDEELDRFKFFLSDEFNIATGKLHTANRIQVATLMIQNAGAVSAVMKTIRIFQKLNYMLLAKRLQEEKEKVDKQYKSVTKPKPLSQAEMS
- IC50: 11 µM
